Data taken from paper PMC5352143.
Several values for one entry are separate records, joined by “and”; a condition that tells them apart may be missing. Equal entries are not always repeated. Where two headings read alike, the source gives them in different places.

Experiments:
[1] = target: LbpB N-terminal lobe with N-terminal biotin acceptor peptide, fused to MBP (BLI construct) (Neisseria meningitidis strain MC58); assay: BLI; Octet RED 96; biotinylated MBP-LbpB constructs loaded from crude E. coli extracts on streptavidin sensors; holo-hLf 10-800 nM in 1 X PBS pH 7.4, 0.002% Tween-20, 0.1 mg/mL BSA; steady-state fit, apparent KD
[2] = target: intact LbpB with N-terminal biotin acceptor peptide, fused to MBP (BLI construct) (Neisseria meningitidis strain MC58); assay: as above
[3] = target: LbpB with the anionic loops removed (LbpB-lgsm), N-terminal biotin acceptor peptide, fused to MBP (BLI construct) (Neisseria meningitidis strain MC58); assay: as above
[4] = target: MBP-LbpB (lactoferrin binding protein B, N. meningitidis MC58, without amino acids 1-15) (Neisseria meningitidis strain MC58); assay: cross-linking; XL-MS: LbpB (MBP fusion or TEV-cleaved) and hLf equimolar in 50 mM Tris-HCl, 50 mM NaCl, pH 7.4, 4 h RT, DSS 30 min, bands cut from SDS-PAGE, LC-MS/MS
[5] = target: LbpB (N. meningitidis MC58, without amino acids 1-15) after TEV cleavage of MBP-LbpB (Neisseria meningitidis strain MC58); assay: as above
[6] = target: MBP-LbpB (lactoferrin binding protein B, N. meningitidis MC58, without amino acids 1-15) (Neisseria meningitidis strain MC58); assay: as above; remark: listed apart in the source
[7] = target: transferrin (Homo sapiens) (UniProt P02787); conditions: cited from earlier work
Sequence of transferrin (Homo sapiens) (P02787 20-698): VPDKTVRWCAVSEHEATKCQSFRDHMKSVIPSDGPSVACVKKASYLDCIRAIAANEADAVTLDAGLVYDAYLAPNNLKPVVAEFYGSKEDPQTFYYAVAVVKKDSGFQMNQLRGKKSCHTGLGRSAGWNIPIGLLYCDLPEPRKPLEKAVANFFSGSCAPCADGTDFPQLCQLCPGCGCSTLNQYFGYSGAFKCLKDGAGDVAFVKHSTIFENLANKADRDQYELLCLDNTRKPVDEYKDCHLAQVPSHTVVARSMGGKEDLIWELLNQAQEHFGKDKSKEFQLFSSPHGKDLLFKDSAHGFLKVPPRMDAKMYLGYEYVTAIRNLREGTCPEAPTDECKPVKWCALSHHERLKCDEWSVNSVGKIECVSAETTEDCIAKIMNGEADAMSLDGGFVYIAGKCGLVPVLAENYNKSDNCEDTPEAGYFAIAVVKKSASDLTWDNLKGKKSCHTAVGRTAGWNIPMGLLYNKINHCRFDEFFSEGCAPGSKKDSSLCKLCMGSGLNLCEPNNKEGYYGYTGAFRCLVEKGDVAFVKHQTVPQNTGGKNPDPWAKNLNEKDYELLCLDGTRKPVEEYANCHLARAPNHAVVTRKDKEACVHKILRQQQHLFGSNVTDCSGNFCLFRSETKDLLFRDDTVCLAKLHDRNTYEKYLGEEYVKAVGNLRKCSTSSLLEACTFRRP

Row | Substance | Kd [1] [µM] | Kd [2] [µM] | Kd [3] [µM] | stoichiometry N [4] | stoichiometry N [5] | stoichiometry N [6] | Kd [7] [µM]
1 | holo human lactoferrin (iron-loaded hLf) (ligand) | 0.126 | 0.0728 | 0.14 | 1 hLf:LbpB | 1 hLf:LbpB and 2 hLf:LbpB | 2 hLf:LbpB | 
2 | TbpB (from UniProt Q09057) |  |  |  |  |  |  | 0.05
